Experimental data: publication PMC9860306

Assays:
[1] = target: rituximab, galactosylated afucosylated (G2) glycoform (human); experiment: SPR; KD2 (second site)
[2] = target: rituximab, galactosylated fucosylated (G2F) glycoform (human); experiment: SPR; KD2 (second site)
[3] = target: rituximab, galactosylated afucosylated (G2) glycoform (human); experiment: SPR; KD1
[4] = target: rituximab, galactosylated fucosylated (G2F) glycoform (human); experiment: SPR; KD1

Sequence of rituximab, galactosylated fucosylated (G2F) glycoform (human) (main, as listed by the source, chain 1 of 2): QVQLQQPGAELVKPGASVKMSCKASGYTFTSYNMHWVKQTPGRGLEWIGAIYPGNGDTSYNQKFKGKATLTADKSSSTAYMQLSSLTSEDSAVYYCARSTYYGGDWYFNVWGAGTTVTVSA
Sequence of rituximab, galactosylated fucosylated (G2F) glycoform (human) (partner, as listed by the source, chain 2 of 2): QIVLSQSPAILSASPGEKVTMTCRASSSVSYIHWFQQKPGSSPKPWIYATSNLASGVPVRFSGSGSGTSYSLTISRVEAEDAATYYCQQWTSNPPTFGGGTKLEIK
Sequence of rituximab, galactosylated afucosylated (G2) glycoform (human) (main, as listed by the source, chain 1 of 2): as the sequence (main, as listed by the source, chain 1 of 2) above
Sequence of rituximab, galactosylated afucosylated (G2) glycoform (human) (partner, as listed by the source, chain 2 of 2): as the sequence (partner, as listed by the source, chain 2 of 2) above

FcγRIIIA(V) tetramer
Kd [1]: 2.3 nM
Kd [2]: 2.29 nM
Kd [3]: 29.9 nM
Kd [4]: 55.2 nM
